According to patent publication US12173061B2, “Compositions and methods for treatment of chronic lung diseases” (Board of Regents, The University of Texas System, priority 2021, dated 2024):
Entries after “also recorded” stand apart in the source; their conditions may differ.

What was measured:
[1] = tested on: fLfs isolated from IPF lungs (hfLfs); assay: Pro-fibrogenic marker expression in fLfs in vitro (immunoblot and mRNA); assay type: cell-based, human; conditions: 2 μg/ml, 48 h, immunoblot
Procedure: FIGS. 3A-3B. Antibodies specific for M9 inhibited pro-fibrogenic markers expression in fLfs in vitro. hfLfs were serum starved and treated with PBS or 2 μg/ml M9 antibody (M9Ab), or 2 μg/ml M9Ab plus 20 μM CSP7 for 48 hours (FIG. 3A). After treatment, cells were harvested and cell lysates were immunoblotted for pro-fibrogenic markers and M9, and 3-actin was used as loading control.
FIG. 4. […]
FIGS. 7A-7M. […] Lung volumes (FIG. 7B) were measured by quantitative-CT renditions, and lung compliance (FIG. 7C) and elastance (FIG. 7D) were measured using a flexiVent system. […] Statistical significance (*P<0.05, **P<0.01, ***P<0.001 and ****P<0.0001) was assessed by one-way ANOVA with Turkey's multiple comparison.
FIGS. 9A-9O. […] FIG. 9B: Lung volumes were measured by quantitative-CT renditions. Lung compliance (FIG. 9C) and elastance (FIG. 9D) were measured using a flexiVent system. […] Statistical significance (*P<0.05, **P<0.01, ***P<0.001 and ****P<0.0001) was assessed by one-way ANOVA with Turkey's multiple comparison. fLfs isolated from IPF lungs treated with PBS or recombinant full length M9 (rM9^FL) protein (2 μg/ml) for 48 h in vitro were tested for pro-fibrogenic proteins (FIG. 9L). fLfs (from IPF lungs) treated with PBS or extracellular domain of rM9^FL protein (rM9^ECD) as in FIG. 9L were tested for pro-fibrogenic proteins (FIG. 9N). […]

[2] = tested on: BLM-induced pulmonary fibrosis; assay: BLM-induced established pulmonary fibrosis in mice, treatment d14-d21; assay type: in vivo
Procedure: FIGS. 9A-9O. M9 peptide and protein mitigated BLM-induced pulmonary fibrosis. Mice exposed to saline or 1.0 U/kg BLM by intratracheal instillation were treated with or without M9 peptide HGHVDPVKTPKI (SEQ ID NO: 4) (10 mg/kg/d) and M9 protein (SEQ ID NO: 1) 7.5 mg/kg/d) via IP injection daily for 7 days starting d14 after BLM injury. FIG. 9A: Representative micro-CT images at d21 after BLM exposure. FIG. 9B: Lung volumes were measured by quantitative-CT renditions. Lung compliance (FIG. 9C) and elastance (FIG. 9D) were measured using a flexiVent system. Lung weights (FIG. 9E) and body weights (FIG. 9F) are presented as bar graphs. Lung homogenates were tested for hydroxyproline (FIG. 9G), soluble collagen (FIG. 9H), pro-fibrogenic marker proteins (FIG. 9I) and mRNAs (FIG. 9J). Bars indicate mean±SD. Statistical significance (*P<0.05, **P<0.01, ***P<0.001 and ****P<0.0001) was assessed by one-way ANOVA with Turkey's multiple comparison. fLfs isolated from IPF lungs treated with PBS or recombinant full length M9 (rM9^FL) protein (2 μg/ml) for 48 h in vitro were tested for pro-fibrogenic proteins (FIG. 9L). fLfs (from IPF lungs) treated with PBS or extracellular domain of rM9^FL protein (rM9^ECD) as in FIG. 9L were tested for pro-fibrogenic proteins (FIG. 9N). The survival the mice treated with rM9^FL is shown FIG. 9M.
FIGS. 10A-10K. UNC5A (“U5”) peptide/protein mitigated BLM-induced pulmonary fibrosis. Mice exposed to saline or 1.0 U/kg BLM by intratracheal instillation were treated with or without U5 peptide (50 residues, SEQ ID NO: 7) (10 mg/kg/d) and full length U5 protein (SEQ ID NO: 5) (7.5 mg/kg/d) via IP injection daily for 7 days starting d14 after BLM injury. FIG. 10A: Representative micro-CT images at d21 after BLM exposure. FIG. 10B: Lung volumes were measured by quantitative-CT renditions. Lung compliance (FIG. 10C) and elastance (FIG. 10D) were measured using a flexiVent system. Lung weights (FIG. 10E) and body weights (FIG. 10F) are presented as bar graphs. Lung homogenates were tested for hydroxyproline (FIG. 10G), soluble collagen (FIG. 10H), pro-fibrogenic marker proteins (FIG. 10I) and mRNAs (FIG. 10J). Bars indicate mean±SD. Statistical significance (*P<0.05, **P<0.01, ***P<0.001 and ****P<0.0001) was assessed by one-way ANOVA with Turkey's multiple comparison.
FIGS. 11A-11K. ALG5 (“A5”) protein mitigated BLM-induced pulmonary fibrosis. Mice exposed to saline or 1.0 U/kg BLM by intratracheal instillation were treated with or without A5 protein (SEQ ID NO: 9) (7.5 mg/kg/d) via IP injection daily for 7 days starting d14 after BLM injury. FIG. 11A: Representative micro-CT images at d21 after BLM exposure. FIG. 11B: Lung volumes were measured by quantitative-CT renditions. Lung compliance (FIG. 11C) and elastance (FIG. 11D) were measured using a flexiVent system. Lung weights (FIG. 11E) and body weights (FIG. 11F) are presented as bar graphs. Lung homogenates were tested for hydroxyproline (FIG. 11G), soluble collagen (FIG. 11H), pro-fibrogenic marker proteins (FIG. 11I) and mRNAs (FIG. 11J). Bars indicate mean±SD. *P<0.05, **P<0.01, ***P<0.001 and ****P<0.0001 were obtained by one-way ANOVA with Turkey's multiple comparison.
FIGS. 12A-12E. WT mice with BLM-PF were treated with or without rM9^ECD (1.5 mg/kg) via intratracheal (IT) instillation daily for 7 d starting d 14 after BLM. Survival (FIG. 12A), body weights (FIG. 12B), lung volumes (FIG. 12C) and lung weights (FIG. 12D) were measured on d 21 post-BLM. Lung homogenates were tested for soluble collagen (FIG. 12E).
FIGS. 13A-13B. FIG. 13A: fLfs (IPF) treated with PBS or M9^mAb (2 μg/ml) or control IgG, tested for pro-fibrogenic proteins (i) and mRNAs (ii). FIG. 13B: WT mice with BLM-PF were left untreated, or intraperitoneal (IP) injected with control IgG or M9^mAb (2.5 mg/kg) daily for 7 d starting 14 d after IT BLM. Body weights (i) and total lung hydroxyproline (ii), and soluble collagen (iii) were measured. […]

[3] = protein 7.5 mg/kg/d IP, 7 days starting d14 after BLM
[4] = protein 7.5 mg/kg/d IP, 7 days starting d14 after BLM, flexiVent, d21

B1: M9 protein: recombinant full length human MEGF9 protein (SEQ ID NO: 1) (protein, listed as Homo sapiens)
chain: MNGGAERAMRSLPSLGGLALLCCAAAAAAAAVASAASAGNVTGGGGAAGQVDASPGPGLRGEPSHPFPRATAPTAQAPRTGPPRATVHRPLAATSPAQSPETTPLWATAGPSSTTFQAPLGPSPTTPPAAERTSTTSQAPTRPAPTTLSTTTGPAPTTPVATTVPAPTTPRTPTPDLPSSSNSSVLPTPPATEAPSSPPPEYVCNCSVVGSLNVNRCNQTTGQCECRPGYQGLHCETCKEGFYLNYTSGLCQPCDCSPHGALSIPCNSSGKCQCKVGVIGSICDRCQDGYYGFSKNGCLPCQCNNRSASCDALTGACLNCQENSKGNHCEECKEGFYQSPDATKECLRCPCSAVTSTGSCSIKSSELEPECDQCKDGYIGPNCNKCENGYYNFDSICRKCQCHGHVDPVKTPKICKPESGECINCLHNTTGFWCENCLEGYVHDLEGNCIKKEVILPTPEGSTILVSNASLTTSVPTPVINSTFTPTTLQTIFSVSTSENSTSALADVSWTQFNIIILTVIIIVVVLLMGFVGAVYMYREYQNRKLNAPFWTIELKEDNISFSSYHDSIPNADVSGLLEDDGNEVAPNGQLTLTTPIHNYKA
With B1 the “pro-fibrogenic marker proteins (Col1, FN, TN-C and α-SMA) in fLfs” value [1] was “reduced”, the survival rate ([2]; mice with BLM-induced existing PF, full length protein 7.5 mg/kg/d IP) was “significantly increased” and the “BLM-induced pulmonary fibrosis (overall)” value ([2]; mice, 1.0 U/kg BLM IT, protein 7.5 mg/kg/d IP daily for 7 days starting d14, d21) was “resolved; also recorded: mitigated”. The “BLM-induced fibrogenic marker proteins (Col1, FN, TN-C, α-SMA) in whole lung homogenates” value [2, 3] was “marked inhibition”, the body weight [2, 3] was “improvement” and the “collagen and other extracellular matrix deposits (Trichrome staining of lung sections)” value [2, 3] was “remarkable reduction”. The “fibrogenic marker transcripts in whole lung homogenates” value [2, 3] was “marked inhibition”, the lung weight [2, 3] was “reduction” and the lung compliance [2, 4] was “improved”. For the same molecule, the lung elastance [2, 4] was “improved”, the “whole lung total hydroxyproline” value ([2]; protein 7.5 mg/kg/d IP, 7 days starting d14 after BLM, lung homogenates) was “significant inhibition” and the lung volume ([2]; protein 7.5 mg/kg/d IP, 7 days starting d14 after BLM, quantitative CT, d21) was “improved”.

B2: rM9^ECD: recombinant extracellular domain of human MEGF9 (SEQ ID NO: 102) (protein, listed as Homo sapiens)
chain: MGWSCIILFLVATATGVHSAAVASAASAGNVTGGGGAAGQVDASPGPGLRGEPSHPFPRATAPTAQAPRTGPPRATVHRPLAATSPAQSPETTPLWATAGPSSTTFQAPLGPSPTTPPAAERTSTTSQAPTRPAPTTLSTTTGPAPTTPVATTVPAPTTPRTPTPDLPSSSNSSVLPTPPATEAPSSPPPGHQWPVAKMPQKYLGKYACESNLKSKYLPLTQPVMNLRVSEAVKTEYVCNCSVVGSLNVNRCNQTTGQCECRPGYQGLHCETCKEGFYLNYTSGLCQPCDCSPHGALSIPCNSSGKCQCKVGVIGSICDRCQDGYYGFSKNGCLPCQCNNRSASCDALTGACLNCQENSKGNHCEECKEGFYQSPDATKECLRCPCSAVTSTGSCSIKSSELEPECDQCKDGYIGPNCNKCENGYYNFDSICRKCQCHGHVDPVKTPKICKPESGECINCLHNTTGFWCENCLEGYVHDLEGNCIKKEVILPTPEGSTILVSNASLTTSVPTPVINSTFTPTTLQTIFSVSTSENSTSALADVSWTQFN
In the case of B2, the “pro-fibrogenic marker proteins (Col1, FN, TN-C and α-SMA) in fLfs” value [1] is reported as “reduced”, the lung function ([2]; 1.5 mg/kg intratracheal (IT) instillation daily for 7 d starting d 14 after BLM) is reported as “improved” and the “existing BLM-induced PF (overall)” value ([2]; WT mice with BLM-PF, 1.5 mg/kg intratracheal (IT) instillation daily for 7 d starting d 14, d 21, 1.5 mg/kg) is reported as “resolved; also recorded: resolution”. The survival rate ([2]; mice with BLM-induced existing PF treated with extracellular domain protein, dose not printed (FIG. 9)) was “significantly increased”.
